Patent US20220025021A1 (BETH ISRAEL DEACONESS MEDICAL CENTER, published 2022)
Numbering of substitutions follows the chain as printed.

B1: MS-104 (antibody)
VH: not shown
VL: DIVLTQSPLSLSVTPGESASISCKSSHSLIHGDRNNYLAWYVQKPGRSPQLLIYLASSRASGVPDRFSGSGSGKDFTLKISRVETEDVGTYYCMQGRESPWTFGQGTKVDIKRTVAAPSVFIFPPSDEQLKSGTASVVCLLNNFYPREAKVQWKVDNALQSGNSQESVTEQDSKDSTYSLSSTLTLSKADYEKHKVYACEVTHQGLSSPVTKSFNRGEC
B2: MS-105 (antibody)
VH: not shown
VL: B1 VL with G73D, T85A
B3: MS-106 (antibody)
VH: not shown
VL: B1 VL with L9H, S18P
B4: MS-107 (antibody)
VH: not shown
VL: B1 VL with L9H, S18P, G73D, T85A
B5: MS-108 (antibody)
VH: not shown
VL: B1 VL with L9H, T85A
B6: MS-109 (antibody)
VH: not shown
VL: B1 VL with I2F, S18P
B7: MS-110 (antibody)
VH: not shown
VL: B1 VL with I2F, S18P, G73D, T85A
B8: MS-111 (antibody)
VH: not shown
VL: B1 VL with I2F, T85A
B9: MS-93 (antibody)
VH: not shown
VL: B1 VL with G73D
B10: MS-94 (antibody)
VH: not shown
VL: B1 VL with L9H, S18P, G73D
B11: MS-95 (antibody)
VH: not shown
VL: B1 VL with L9H
B12: MS-96 (antibody)
VH: not shown
VL: B1 VL with L9H, G73D, T85A
B13: MS-97 (antibody)
VH: not shown
VL: B1 VL with I2F, S18P, G73D
B14: MS-98 (antibody)
VH: not shown
VL: B1 VL with I2F
B15: MS-99 (antibody)
VH: not shown
VL: B1 VL with I2F, G73D, T85A
B16: MS-100 (antibody)
VH: not shown
VL: B1 VL with I2F, L9H, S18P

molecular target: HIV-1 envelope glycoprotein of pseudovirus DU172.17 (HIV-1); experiment: cell-based or functional assay

Binder	IC50 (neutralization in TZM.bl cells) [µg/mL]	IC80 (neutralization in TZM.bl cells) [µg/mL]
B1	2.58	9.41
B2	3.06	11.5
B3	1.49	8.04
B4	2.58	13.9
B5	1.71	13.6
B6	1.14	8.76
B7	0.847	7.3
B8	1.76	6.27

molecular target: HIV-1 envelope glycoprotein of pseudovirus CNE52 (HIV-1); experiment: cell-based or functional assay

Binder	IC50 (neutralization in TZM.bl cells) [µg/mL]	IC80 (neutralization in TZM.bl cells) [µg/mL]
B1	0.509	6.48
B2	0.441	5.04
B3	0.42	4.31
B4	0.389	5.29
B5	0.265	3.5
B6	0.206	1.95
B7	0.21	1.31
B8	0.22	1.31

molecular target: HIV-1 envelope glycoprotein of pseudovirus RHPA4259.7 (HIV-1); experiment: cell-based or functional assay

Binder	IC50 (neutralization in TZM.bl cells) [µg/mL]	IC80 (neutralization in TZM.bl cells) [µg/mL]
B1	0.227	1.02
B2	0.27	1.25
B3	0.143	0.72
B4	0.219	0.949
B5	0.178	1.1
B6	0.182	0.794
B7	0.18	0.817
B8	0.178	0.802

molecular target: HIV-1 envelope glycoprotein of pseudovirus 0260.v5.c36 (HIV-1); experiment: cell-based or functional assay

Binder	IC50 (neutralization in TZM.bl cells) [µg/mL]	IC80 (neutralization in TZM.bl cells) [µg/mL]
B1	0.024	0.084
B2	0.032	0.11
B3	0.018	0.066
B4	0.034	0.109
B5	0.028	0.088
B6	0.027	0.089
B7	0.026	0.088
B8	0.024	0.066

molecular target: HIV-1 envelope glycoprotein of pseudovirus SC422661.8 (HIV-1); experiment: cell-based or functional assay

Binder	IC50 (neutralization in TZM.bl cells) [µg/mL]	IC80 (neutralization in TZM.bl cells) [µg/mL]
B1	0.277	1.52
B2	0.44	3.51
B3	0.201	1.07
B4	0.362	2.07
B5	0.148	1.25
B6	0.233	1.75
B7	0.243	1.19
B8	0.285	1.03

molecular target: HIV-1 envelope glycoprotein of pseudovirus BB1012-11.TC21 (HIV-1); experiment: cell-based or functional assay

Binder	IC50 (neutralization in TZM.bl cells) [µg/mL]	IC80 (neutralization in TZM.bl cells) [µg/mL]
B1	0.032	0.137
B2	0.038	0.124
B3	0.031	0.132
B4	0.035	0.111
B5	0.027	0.11
B6	0.021	0.087
B7	0.033	0.104
B8	0.029	0.093

molecular target: HIV-1 pseudovirus X1193_c1 (envelope glycoprotein) (HIV-1); experiment: cell-based or functional assay

Binder	neutralization IC50 [µg/mL]	neutralization IC80 [µg/mL]
B9	0.088	0.543
B10	0.123	0.548
B11	0.111	0.467
B12	0.113	0.677
B13	0.101	0.588
B14	0.088	0.369
B15	0.13	0.57
B16	0.058	0.358

molecular target: HIV-1 pseudovirus 263-8 (envelope glycoprotein) (HIV-1); experiment: cell-based or functional assay

Binder	neutralization IC50 [µg/mL]	neutralization IC80 [µg/mL]
B9	0.018	0.065
B10	0.014	0.047
B11	0.013	0.047
B12	0.018	0.064
B13	0.015	0.052
B14	0.009	0.033
B15	0.011	0.041
B16	0.006	0.026

molecular target: HIV-1 pseudovirus Ce1176_A3 (envelope glycoprotein) (HIV-1); experiment: cell-based or functional assay

Binder	neutralization IC50 [µg/mL]	neutralization IC80 [µg/mL]
B9	0.239	5.33
B10	0.371	11.7
B11	0.203	5.38
B12	0.248	5.85
B13	0.125	1.59
B14	0.102	2.36
B15	0.074	1.25
B16	0.048	0.905

molecular target: HIV-1 pseudovirus AC10.0.29 (envelope glycoprotein) (HIV-1); experiment: cell-based or functional assay

Binder	neutralization IC50 [µg/mL]	neutralization IC80 [µg/mL]
B9	0.058	0.301
B10	0.079	0.299
B11	0.076	0.27
B12	0.064	0.253
B13	0.057	0.282
B14	0.067	0.245
B15	0.072	0.328
B16	0.042	0.211

molecular target: HIV-1 pseudovirus SC05.8C11.2344 (envelope glycoprotein) (HIV-1); experiment: cell-based or functional assay

Binder	neutralization IC50 [µg/mL]	neutralization IC80 [µg/mL]
B9	0.749	2.48
B10	0.739	2.5
B11	0.702	1.79
B12	1.07	3.4
B13	1.02	2.63
B14	0.59	1.9
B15	0.759	2.49
B16	0.531	1.77

molecular target: HIV-1 pseudovirus 6952.v1.c20 (envelope glycoprotein) (HIV-1); experiment: cell-based or functional assay

Binder	neutralization IC50 [µg/mL]	neutralization IC80 [µg/mL]
B9	0.259	4.31
B10	0.238	3.67
B11	0.229	6.26
B12	0.558	8.56
B13	0.147	0.917
B14	0.109	1.6
B15	0.217	1.99
B16	0.182	1.68
